The source of these data is patent publication US5543312A, “Pastuerella haemolytica glycoprotease gene and the purified enzyme” (priority 1991, dated 1996).

The test system of experiment [1] is P. haemolytica glycoprotease. The experiment in a line: Cleavage of cell surface antigens of surface-125I-iodinated KG1a cells, immunoprecipitation and SDS-PAGE. The class given is cell-based. An excerpt: In our previous work, we have concentrated on the cleavage of human erythrocyte glycophorin A by the P. haemolytica glycoprotease Udoh et al. 1986. Univ. of Guelph; Abdullah et al. 1988. Proc. Canad. Fed. Biol. Socs.; Abdullah et al. 1990. Biochem. Soc. Trans. This substrate is well-characterized erythrocyte surface O-sialoglycoprotein and is readily available for biochemical analysis. However, it is clear that the physiological targets of this enzyme are not erthrocyte antigens but are probably O-sialoglycoproteins on the surfaces of leukocytes or endothelial cells. SDS-PAGE analysis of immunoprecipitations performed with specific monoclonal antibodies on lysates of surface-^125 I-iodinated KG1a cells, a primitive myeloid/T-lymphois stem cell line Koeffler et al. 1977. Science 200, have shown that the O-sialoglycoprotein cell surface antigens CD34 Civin et al. 1989. Leucocyte Typing IV, Oxford Univ. Press. CD43/leucosialin Killeen et al. 1987. EMBO J.; Pallant et al. 1989. PNAS, CD44/lyaluronic acid receptor Stamenkovic et al. 1989. Cell; Aruffo et al. 1990. Cell and CD45/leucocyte common antigen Thomas et al. 1989. Annu. REv. Immunol.; Pulido et al. 1989. J. Immunol. are all cleaved by the glycoprotease. Although the glycoprotease-sensitive structures contain some N-linked glycans they are all extensively glycosylated with O-linked carbohydrates. However, the N-linked glycoproteins CD18/11^a, 11^b, 11^c /leukocyte integrins Arnaout et al. 1990. Blood, CD71/transferrin receptor Shae et al. 1986. Cell, HLA class I Owen et al. 1980. J. Biol. Chem., and 8A3 antigens Sutherland et al. Blood (in press, Jan. 1991), which lack O-sialo-residues, were resistant to the action of the enzyme.

Experiment [2] deals with P. haemolytica glycoprotease. The experiment in a line: Removal of CD34 epitopes on KG1/KG1a cells (fluorescence microscopy, flow cytometry, western blotting). Format: cell-based. From the text:
Blood; Katz et al. 1985. Leuk. Res. which detects a sialic acid-dependent epitope on this glycoprotein Watt et al. 1987. Leukaemia; and Sutherland et al. 1988. Leukaemia. We have assessed the ability of this enzyme to remove CD34 epitopes recognized by all seven CD34 antibodies designated by the 4th Leucocyte Antigen Workshop Civin et al. 1989. Leukocyte Typing IV, Oxford Univ. Press. We have shown by fluorescence microscopy, quantitative flow cytometry and western blotting, that sialic acid-dependent epitopes, recognized by antibodies B1.3C5, MY10 Civin et al. 1984. J. Immunol. and 12.8 Andrews et la. 1986. […] Leukaemia and 188.24 Sutherland et al. Leukaemia. In contrast, the sialic acid-independent epitopes by 115.2 Andrew et al. 1986. Blood and TUK3 Civin et al. 1989. Leucocyte Typing IV, Oxford Univ. […] As previously for the cleavage of glycophorin, the enzyme requires the presence of sialyted residues on its substrate and the prior treatment of KGla cells with neuraminidase reduced the ability of the glycoprotease to cleave the ICH3 and 188.24 epitopes Sutherland et al. 1990. Blood (in press). The differential sensitivity of certain CD34 epitopes to cleavage with either neuraminidase and/or glycoprotease establishes 3 classes of epitopes:(Class 1) those like MY 10,B1.3C5 and 12.8 which are removed both by neuraminidase and by the glycoprotease;(Class II) those like ICH3 and 188.24 which are removed only by the glycoprotease; (Class III) those like TUK3 and 115.2
On the technique in general: A flow cytometer gives signals particle by particle.

Experiment [3] has as its target P. haemolytica A1 protease (Mannheimia haemolytica, UniProt P36175). The class given is biochemical. The following applies: FIG. 9; SDS-PAGE autoradiography.

B1: CD43/leucosialin: O-sialoglycoprotein cell surface antigen, leukosialin/sialophorin (protein)
chain: STTAVQTPTSGEPLVSTSEPLSSKMYTTSITSDPKADSTGDQTSALPPSTSINEGSPLWTSIGASTGSPLPEPTTYQEVSIKMSSVPQETPHATSHPAVPITANSLGSHTVTGGTITTNSPETSSRTSGAPVTTAASSLETSRGTSGPPLTMATVSLETSKGTSGPPVTMATDSLETSTGTTGPPVTMTTGSLEPSSGASGPQVSSVKLSTMMSPTTSTNASTVPFRNPDENSRGMLPVAVLVALLAVIVLVALLLLWRRRQKRRTGALVLSRGGKRNGVVDAWAGPAQVPEEGAVTVTVGGSGGDKGSGFPDGEGSSRRPTLTTFFGRRKSRQGSLAMEELKSGSGPSLKGEEEPLVASEDGAVDAPAPDEPEGGDGAAP
modifications: O-sialoglycosylated
B1: the “Cleavage of cell surface antigen by the glycoprotease” value (shortened to “Cleavage of cell surface antigen”) in experiment [1] is given as “cleaved”.

B2: CD45/leucocyte common antigen: O-sialoglycoprotein cell surface antigen, leukocyte common antigen (protein)
chain: QSPTPSPTGLTTAKMPSVPLSSDPLPTHTTAFSPASTFERENDFSETTTSLSPDNTSTQVSPDSLDNASAFNTTGVSSVQTPHLPTHADSQTPSAGTDTQTFSGSAANAKLNPTPGSNAISDVPGERSTASTFPTDPVSPLTTTLSLAHHSSAALPARTSNTTITANTSDAYLNASETTTLSPSGSAVISTTTIATTPSKPTCDEKYANITVDYLYNKETKLFTAKLNVNENVECGNNTCTNNEVHNLTECKNASVSISHNSCTAPDKTLILDVPPGVEKFQLHDCTQVEKADTTICLKWKNIETFTCDTQNITYRFQCGNMIFDNKEIKLENLEPEHEYKCDSEILYNNHKFTNASKIIKTDFGSPGEPQIIFCRSEAAHQGVITWNPPQRSFHNFTLCYIKETEKDCLNLDKNLIKYDLQNLKPYTKYVLSLHAYIIAKVQRNGSAAMCHFTTKSAPPSQVWNMTVSMTSDNSMHVKCRPPRDRNGPHERYHLEVEAGNTLVRNESHKNCDFRVKDLQYSTDYTFKAYFHNGDYPGEPFILHHSTSYNSKALIAFLAFLIIVTSIALLVVLYKIYDLHKKRSCNLDEQQELVERDDEKQLMNVEPIHADILLETYKRKIADEGRLFLAEFQSIPRVFSKFPIKEARKPFNQNKNRYVDILPYDYNRVELSEINGDAGSNYINASYIDGFKEPRKYIAAQGPRDETVDDFWRMIWEQKATVIVMVTRCEEGNRNKCAEYWPSMEEGTRAFGDVVVKINQHKRCPDYIIQKLNIVNKKEKATGREVTHIQFTSWPDHGVPEDPHLLLKLRRRVNAFSNFFSGPIVVHCSAGVGRTGTYIGIDAMLEGLEAENKVDVYGYVVKLRRQRCLMVQVEAQYILIHQALVEYNQFGETEVNLSELHPYLHNMKKRDPPSEPSPLEAEFQRLPSYRSWRTQHIGNQEENKSKNRNSNVIPYDYNRVPLKHELEMSKESEHDSDESSDDDSDSEEPSKYINASFIMSYWKPEVMIAAQGPLKETIGDFWQMIFQRKVKVIVMLTELKHGDQEICAQYWGEGKQTYGDIEVDLKDTDKSSTYTLRVFELRHSKRKDSRTVYQYQYTNWSVEQLPAEPKELISMIQVVKQKLPQKNSSEGNKHHKSTPLLIHCRDGSQQTGIFCALLNLLESAETEEVVDIFQVVKALRKARPGMVSTFEQYQFLYDVIASTYPAQNGQVKKNNHQEDKIEFDNEVDKVKQDANCVNPLGAPEKLPEAKEQAEGSEPTSGTEGPEHSVNGPASPALNQGS
modifications: O-sialoglycosylated
On to B2, for which the “Cleavage of cell surface antigen” value in experiment [1] is reported as “cleaved”.

B3: CD34: O-sialoglycoprotein cell surface antigen, primitive bone marrow stem cell antigen (protein, UniProt P28906 32-385, looked up)
Hematopoietic progenitor cell …: SLDNNGTATPELPTQGTFSNVSTNVSYQETTTPSTLGSTSLHPVSQHGNEATTNITETTVKFTSTSVITSVYGNTNSSVQSQTSVISTVFTTPANVSTPETTLKPSLSPGNVSDLSTTSTSLATSPTKPYTSSSPILSDIKAEIKCSGIREVKLTQGICLEQNKTSSCAEFKKDRGEGLARVLCGEEQADADAGAQVCSLLLAQSEVRPQCLLLVLANRTEISSKLQLMKKHQSDLKKLGILDFTEQDVASHQSYSQKTLIALVTSGALLAVLGITGYFLMNRRSWSPTGERLGEDPYYTENGGGQGYSSGPGTSPEAQGKASVNRGAQENGTGQATSRNGHSARQHVVADTEL
As for B3, the “Cleavage of cell surface antigen” value in experiment [1] is recorded as “cleaved”. In addition, in experiment [2], the “Removal of sialic acid-dependent epitopes recognized by antibodies B1.3C5, MY10 and 12.8” value is recorded as “totally removed”; the “Removal of sialic acid-independent epitopes recognized by ICH3 and 188.24” value was “totally removed”; the “Sensitivity of sialic acid-independent epitopes recognized by 115.2 and TUK3” value is given as “totally resistant”. Moreover, in experiment [2] (KG1 cells), the “Cleavage of CD34, loss of reactivity with anti-CD34 monoclonal antibody B1.3C5” value is “readily cleaved”.

B4: glycophorin A: major sialoglycopeptide of the human erythrocyte membrane (protein, UniProt P02724 20-150, looked up)
Glycophorin-A: LSTTEVAMHTSTSSSVTKSYISSQTNDTHKRDTYAATPRAHEVSEISVRTVYPPEEETGERVQLAHHFSEPEITLIIFGVMAGVIGTILLISYGIRRLIKKSPSDVKPLPSPDTDVPLSSVEIENPETSDQ
With B4, the “Hydrolysis of [125I]-glycophorin A forms by P. haemolytica A1 pH 4.5 fraction” value in experiment [3] is reported as “total hydrolysis”.
